Results on six molecules are retold here after paper PMC5778602 (Nucleic Acids Research, 2017).

B1: full length GST-CstF-50 fusion protein (natural protein, human, UniProt Q05048 1-431, looked up)
chain: MYRTKVGLKDRQQLYKLIISQLLYDGYISIANGLINEIKPQSVCAPSEQLLHLIKLGMENDDTAVQYAIGRSDTVAPGTGIDLEFDADVQTMSPEASEYETCYVTSHKGPCRVATYSRDGQLIATGSADASIKILDTERMLAKSAMPIEVMMNETAQQNMENHPVIRTLYDHVDEVTCLAFHPTEQILASGSRDYTLKLFDYSKPSAKRAFKYIQEAEMLRSISFHPSGDFILVGTQHPTLRLYDINTFQCFVSCNPQDQHTDAICSVNYNSSANMYVTGSKDGCIKLWDGVSNRCITTFEKAHDGAEVCSAIFSKNSKYILSSGKDSVAKLWEISTGRTLVRYTGAGLSGRQVHRTQAVFNHTEDYVLLPDERTISLCCWDSRTAERRNLLSLGHNNIVRCIVHSPTNPGFMTCSDDFRARFWYRRSTTD
B3: CstF-77ΔN (domain or fragment, human, UniProt Q12996 241-717, looked up)
chain: NTPQEAQQVDMWKKYIQWEKSNPLRTEDQTLITKRVMFAYEQCLLVLGHHPDIWYEAAQYLEQSSKLLAEKGDMNNAKLFSDEAANIYERAISTLLKKNMLLYFAYADYEESRMKYEKVHSIYNRLLAIEDIDPTLVYIQYMKFARRAEGIKSGRMIFKKAREDTRTRHHVYVTAALMEYYCSKDKSVAFKIFELGLKKYGDIPEYVLAYIDYLSHLNEDNNTRVLFERVLTSGSLPPEKSGEIWARFLAFESNIGDLASILKVEKRRFTAFKEEYEGKETALLVDRYKFMDLYPCSASELKALGYKDVSRAKLAAIIPDPVVAPSIVPVLKDEVDRKPEYPKPDTQQMIPFQPRHLAPPGLHPVPGGVFPVPPAAVVLMKLLPPPICFQGPFVQVDELMEIFRRCKIPNTVEEAVRIITGGAPELAVEGNGPVESNAVLTKAVKRPNEDSDEDEEKGAVVPPVHDIYRARQQKRIR

Data set [1] deals with B3. Description: pull-down.
Data set [2] has as its target B3. The data set can be described thus: SEC.
The data set “SEC-MALS” deals with the molecule itself. The data set can be described thus: SEC-MALS. Background: Size exclusion chromatography separates by hydrodynamic size, large species first.
The next data set has as its target T1, WD40 domain of CstF-50 (human, UniProt Q05048 80-431).
T1 sequence: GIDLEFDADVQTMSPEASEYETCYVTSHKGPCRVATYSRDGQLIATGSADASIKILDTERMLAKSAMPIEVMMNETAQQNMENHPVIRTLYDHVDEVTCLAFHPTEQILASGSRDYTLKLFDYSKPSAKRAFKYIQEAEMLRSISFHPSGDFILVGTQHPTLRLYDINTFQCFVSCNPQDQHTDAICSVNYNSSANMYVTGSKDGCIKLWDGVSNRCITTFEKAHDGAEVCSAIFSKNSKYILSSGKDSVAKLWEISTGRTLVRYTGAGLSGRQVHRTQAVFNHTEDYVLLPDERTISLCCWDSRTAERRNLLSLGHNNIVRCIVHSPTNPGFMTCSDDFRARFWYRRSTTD
The data set can be described thus: ITC. On the technique in general: Isothermal titration calorimetry measures the heat released or taken up as one component is titrated into another.

For data set [3], the target named is B1. Description: pull-down.

As to B1, the binding result with CstF-77ΔN [1] is given as “binds”.

B2: CstF-50 (full length, affinity tag removed) (natural protein, human, UniProt Q05048 1-431, looked up)
chain: MYRTKVGLKDRQQLYKLIISQLLYDGYISIANGLINEIKPQSVCAPSEQLLHLIKLGMENDDTAVQYAIGRSDTVAPGTGIDLEFDADVQTMSPEASEYETCYVTSHKGPCRVATYSRDGQLIATGSADASIKILDTERMLAKSAMPIEVMMNETAQQNMENHPVIRTLYDHVDEVTCLAFHPTEQILASGSRDYTLKLFDYSKPSAKRAFKYIQEAEMLRSISFHPSGDFILVGTQHPTLRLYDINTFQCFVSCNPQDQHTDAICSVNYNSSANMYVTGSKDGCIKLWDGVSNRCITTFEKAHDGAEVCSAIFSKNSKYILSSGKDSVAKLWEISTGRTLVRYTGAGLSGRQVHRTQAVFNHTEDYVLLPDERTISLCCWDSRTAERRNLLSLGHNNIVRCIVHSPTNPGFMTCSDDFRARFWYRRSTTD
Take B2: the binding result in the data set with CstF-77ΔN [2] is on record as “binds”.
Usually stoichiometry N stands for a count of units in the complex or per binding partner. Consider B3, for which the “stoichiometry N” value in the data set “SEC-MALS” is 2.
As a reminder, the Kd is the constant that tells how readily two partners part at equilibrium. The low end stands for higher affinity, the high end for lower affinity. Take YPKPDTQQMIPFQPRHLAPP (peptide, UniProt Q12996 581-600, looked up) [CstF-77 peptide (residues 581–600)]: in the data set with WD40 domain of CstF-50, the Kd is roughly 200 nM and the “stoichiometry N” value came to 1.

B4: CstF-77 (residues 241–600) (domain or fragment, human, UniProt Q12996 241-600, looked up)
chain: NTPQEAQQVDMWKKYIQWEKSNPLRTEDQTLITKRVMFAYEQCLLVLGHHPDIWYEAAQYLEQSSKLLAEKGDMNNAKLFSDEAANIYERAISTLLKKNMLLYFAYADYEESRMKYEKVHSIYNRLLAIEDIDPTLVYIQYMKFARRAEGIKSGRMIFKKAREDTRTRHHVYVTAALMEYYCSKDKSVAFKIFELGLKKYGDIPEYVLAYIDYLSHLNEDNNTRVLFERVLTSGSLPPEKSGEIWARFLAFESNIGDLASILKVEKRRFTAFKEEYEGKETALLVDRYKFMDLYPCSASELKALGYKDVSRAKLAAIIPDPVVAPSIVPVLKDEVDRKPEYPKPDTQQMIPFQPRHLAPP
Turning to B4, the binding result in data set [3] was “binds”.

B5: CstF-77 (residues 241–610) (domain or fragment, human, UniProt Q12996 241-610, looked up)
chain: NTPQEAQQVDMWKKYIQWEKSNPLRTEDQTLITKRVMFAYEQCLLVLGHHPDIWYEAAQYLEQSSKLLAEKGDMNNAKLFSDEAANIYERAISTLLKKNMLLYFAYADYEESRMKYEKVHSIYNRLLAIEDIDPTLVYIQYMKFARRAEGIKSGRMIFKKAREDTRTRHHVYVTAALMEYYCSKDKSVAFKIFELGLKKYGDIPEYVLAYIDYLSHLNEDNNTRVLFERVLTSGSLPPEKSGEIWARFLAFESNIGDLASILKVEKRRFTAFKEEYEGKETALLVDRYKFMDLYPCSASELKALGYKDVSRAKLAAIIPDPVVAPSIVPVLKDEVDRKPEYPKPDTQQMIPFQPRHLAPPGLHPVPGGVF
With B5, in data set [3], the binding result was “binds”.
